Columns and labels:
[1] = target: T1, construct 4276 (single-chain TMP: NKG2 peptide …, β2M polypeptide, HLA-E heavy chain polypeptide, Ig Fc …); test: BLI (Octet HTX), biotinylated receptor on streptavidin biosensor, bivalent TMP as analyte, steady state Kd (avidity)
Description: (§1) Streptavidin-coated biosensors were used to immobilize biotinylated NKG2A/CD94 heterodimers, or biotinylated NKG2C/CD94 heterodimers.

[2] = target: T1, construct 4276 (single-chain TMP: NKG2 …); test: BLI (Octet HTX), biotinylated receptor on streptavidin biosensor, bivalent TMP as analyte, kinetic analysis
Description: as §1

Row | Binder | Kd [1] | koff [2]
1 | biotinylated NKG2A/CD94 heterodimer (receptor, Biotinylated heterodimer immobilized on streptavidin-coated biosensors; also called CD94/NKG2A receptor; NKG2A/CD94 complex) chain 1: not shown chain 2: KNSFTKLSIEPAFTPGPNIELQKDSDCCSCQEKWVGYRCNCYFISSEQKTWNESRHLCASQKSSLLQLQNTDELDFMSSSQQFYWIGLSYSEEHTAWLWENGSALSQYLFPSFETFNTKNCIAYNPNGNALDESCEDKNRYICKQQLI | 57 nM | 0.04 s⁻¹
2 | biotinylated NKG2C/CD94 heterodimer (receptor, Biotinylated heterodimer immobilized on streptavidin-coated biosensors; also called CD94/NKG2C receptor) chain 1: not shown chain 2: KNSFTKLSIEPAFTPGPNIELQKDSDCCSCQEKWVGYRCNCYFISSEQKTWNESRHLCASQKSSLLQLQNTDELDFMSSSQQFYWIGLSYSEEHTAWLWENGSALSQYLFPSFETFNTKNCIAYNPNGNALDESCEDKNRYICKQQLI | 55 nM | 0.053 s⁻¹

From patent US20260184758A1 (CUE BIOPHARMA, published 2026)
